The supplement of paper PMC10065799, “High-throughput profiling of sequence recognition by tyrosine kinases and SH2 domains using bacterial peptide display” (eLife, 2023)

What was measured:
AncSZ = assay: phosphorylation enrichment, bacterial display (enrichment ratio); higher = better substrate or ligand; peptides without Tyr show the background
EPHB1 = EPHB1 (UniProt P54762); assay: as above
EPHB2 = EPHB2 (UniProt P29323); assay: as above
FGFR1 = FGFR1 (UniProt P11362); assay: as above
FGFR3 = FGFR3 (UniProt P22607); assay: as above
Fer (mouse) = assay: as above
Fes = Fes (UniProt P07332); assay: as above
Fyn = Fyn (UniProt P06241); assay: as above
Hck = Hck (UniProt P08631); assay: as above
Jak2 = Jak2 (UniProt O60674); assay: as above
MERTK = MERTK (UniProt Q12866); assay: as above
c-Abl (mouse) = assay: as above
c-Src = assay: as above
Grb2 SH2 = Grb2 SH2 (UniProt P62993); assay: SH2 binding enrichment of the phosphorylated peptide, bacterial display (enrichment ratio); higher = better substrate or ligand; peptides without Tyr show the background
SHP2-C SH2 = assay: as above
c-Src SH2 = assay: as above
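Wherever SH2 binding enrichment of the phosphorylated peptide, bacterial display is given: peptide library displayed on the E. coli surface as eCPX fusions, selected cells deep-sequenced, score is each peptide's frequency after selection divided by its frequency in the input.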
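Wherever phosphorylation enrichment, bacterial display is given: 11-residue human phosphosite peptides and single-mutation variants displayed on the E. coli surface, counted by deep sequencing, each peptide's frequency after selection divided by its frequency in the unselected input library; frequency after pTyr selection over input frequency; kinase dosed for 20-30% of maximal phosphorylation in three min.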

FGFR1, sequence (P11362 whole entry, looked up): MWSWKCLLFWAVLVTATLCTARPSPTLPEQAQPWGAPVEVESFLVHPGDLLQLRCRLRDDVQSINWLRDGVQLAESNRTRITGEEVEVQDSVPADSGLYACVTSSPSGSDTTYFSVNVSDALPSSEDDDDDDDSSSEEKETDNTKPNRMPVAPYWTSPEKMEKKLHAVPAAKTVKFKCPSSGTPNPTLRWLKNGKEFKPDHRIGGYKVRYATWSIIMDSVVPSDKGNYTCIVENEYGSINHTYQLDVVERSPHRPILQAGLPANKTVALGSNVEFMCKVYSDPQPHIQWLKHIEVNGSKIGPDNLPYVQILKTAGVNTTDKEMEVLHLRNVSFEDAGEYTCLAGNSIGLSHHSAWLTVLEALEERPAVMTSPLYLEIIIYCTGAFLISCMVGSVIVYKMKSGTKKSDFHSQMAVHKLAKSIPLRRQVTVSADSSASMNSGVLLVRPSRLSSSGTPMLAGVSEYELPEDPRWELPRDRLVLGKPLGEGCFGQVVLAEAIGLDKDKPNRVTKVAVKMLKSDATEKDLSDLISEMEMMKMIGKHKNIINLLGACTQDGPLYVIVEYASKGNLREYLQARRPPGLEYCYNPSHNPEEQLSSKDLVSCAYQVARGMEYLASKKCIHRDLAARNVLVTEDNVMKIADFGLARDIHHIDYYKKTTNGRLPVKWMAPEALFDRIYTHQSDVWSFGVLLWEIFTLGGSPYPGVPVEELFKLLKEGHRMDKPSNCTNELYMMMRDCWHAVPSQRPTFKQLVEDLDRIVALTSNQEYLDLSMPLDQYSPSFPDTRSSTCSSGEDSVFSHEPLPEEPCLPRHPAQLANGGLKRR
Hck, sequence (P08631 whole entry, looked up): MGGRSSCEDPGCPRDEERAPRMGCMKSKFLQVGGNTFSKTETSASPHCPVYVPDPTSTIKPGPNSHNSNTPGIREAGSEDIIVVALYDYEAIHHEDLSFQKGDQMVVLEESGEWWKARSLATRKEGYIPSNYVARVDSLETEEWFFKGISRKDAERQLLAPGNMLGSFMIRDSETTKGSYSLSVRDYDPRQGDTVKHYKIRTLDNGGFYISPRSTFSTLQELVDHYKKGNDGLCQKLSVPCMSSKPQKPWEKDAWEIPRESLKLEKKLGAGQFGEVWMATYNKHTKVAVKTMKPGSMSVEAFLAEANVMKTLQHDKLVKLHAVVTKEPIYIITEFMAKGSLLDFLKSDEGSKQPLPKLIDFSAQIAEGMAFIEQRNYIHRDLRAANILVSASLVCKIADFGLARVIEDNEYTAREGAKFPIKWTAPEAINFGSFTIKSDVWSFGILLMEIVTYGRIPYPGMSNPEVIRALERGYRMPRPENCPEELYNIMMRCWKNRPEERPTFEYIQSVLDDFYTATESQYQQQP
MERTK, sequence (Q12866 whole entry, looked up): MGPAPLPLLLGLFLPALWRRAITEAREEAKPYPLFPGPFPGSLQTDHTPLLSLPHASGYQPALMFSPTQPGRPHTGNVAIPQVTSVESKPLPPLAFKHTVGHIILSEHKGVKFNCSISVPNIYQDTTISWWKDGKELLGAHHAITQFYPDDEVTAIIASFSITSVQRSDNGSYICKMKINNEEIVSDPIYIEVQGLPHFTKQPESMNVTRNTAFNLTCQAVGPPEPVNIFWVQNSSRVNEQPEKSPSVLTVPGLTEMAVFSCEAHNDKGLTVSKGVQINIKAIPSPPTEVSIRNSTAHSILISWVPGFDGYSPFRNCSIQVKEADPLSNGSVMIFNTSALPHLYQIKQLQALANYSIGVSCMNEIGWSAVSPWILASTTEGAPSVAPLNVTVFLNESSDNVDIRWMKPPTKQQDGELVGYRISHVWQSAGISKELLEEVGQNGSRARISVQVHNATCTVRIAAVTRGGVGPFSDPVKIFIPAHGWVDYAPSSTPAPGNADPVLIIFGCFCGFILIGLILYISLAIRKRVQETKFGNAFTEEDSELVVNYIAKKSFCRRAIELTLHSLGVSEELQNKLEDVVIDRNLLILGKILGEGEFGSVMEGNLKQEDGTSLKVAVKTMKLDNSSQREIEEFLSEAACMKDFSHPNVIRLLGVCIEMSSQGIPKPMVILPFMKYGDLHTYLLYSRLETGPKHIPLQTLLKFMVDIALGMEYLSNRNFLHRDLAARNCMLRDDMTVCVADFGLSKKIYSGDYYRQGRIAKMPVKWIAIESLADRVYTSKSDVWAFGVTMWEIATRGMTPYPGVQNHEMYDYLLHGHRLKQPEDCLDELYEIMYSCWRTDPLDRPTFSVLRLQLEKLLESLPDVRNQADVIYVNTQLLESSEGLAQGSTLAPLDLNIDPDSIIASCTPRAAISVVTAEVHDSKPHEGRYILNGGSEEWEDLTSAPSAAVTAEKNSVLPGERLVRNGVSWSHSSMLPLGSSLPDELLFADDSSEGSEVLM
Grb2 SH2, sequence (P62993 whole entry, looked up): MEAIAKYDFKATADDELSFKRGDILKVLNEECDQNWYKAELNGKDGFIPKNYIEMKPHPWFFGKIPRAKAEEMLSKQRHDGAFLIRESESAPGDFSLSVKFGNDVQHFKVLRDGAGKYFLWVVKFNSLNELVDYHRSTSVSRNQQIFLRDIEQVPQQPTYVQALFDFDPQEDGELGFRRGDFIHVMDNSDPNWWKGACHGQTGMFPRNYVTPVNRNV
EPHB2, sequence (P29323 whole entry, looked up): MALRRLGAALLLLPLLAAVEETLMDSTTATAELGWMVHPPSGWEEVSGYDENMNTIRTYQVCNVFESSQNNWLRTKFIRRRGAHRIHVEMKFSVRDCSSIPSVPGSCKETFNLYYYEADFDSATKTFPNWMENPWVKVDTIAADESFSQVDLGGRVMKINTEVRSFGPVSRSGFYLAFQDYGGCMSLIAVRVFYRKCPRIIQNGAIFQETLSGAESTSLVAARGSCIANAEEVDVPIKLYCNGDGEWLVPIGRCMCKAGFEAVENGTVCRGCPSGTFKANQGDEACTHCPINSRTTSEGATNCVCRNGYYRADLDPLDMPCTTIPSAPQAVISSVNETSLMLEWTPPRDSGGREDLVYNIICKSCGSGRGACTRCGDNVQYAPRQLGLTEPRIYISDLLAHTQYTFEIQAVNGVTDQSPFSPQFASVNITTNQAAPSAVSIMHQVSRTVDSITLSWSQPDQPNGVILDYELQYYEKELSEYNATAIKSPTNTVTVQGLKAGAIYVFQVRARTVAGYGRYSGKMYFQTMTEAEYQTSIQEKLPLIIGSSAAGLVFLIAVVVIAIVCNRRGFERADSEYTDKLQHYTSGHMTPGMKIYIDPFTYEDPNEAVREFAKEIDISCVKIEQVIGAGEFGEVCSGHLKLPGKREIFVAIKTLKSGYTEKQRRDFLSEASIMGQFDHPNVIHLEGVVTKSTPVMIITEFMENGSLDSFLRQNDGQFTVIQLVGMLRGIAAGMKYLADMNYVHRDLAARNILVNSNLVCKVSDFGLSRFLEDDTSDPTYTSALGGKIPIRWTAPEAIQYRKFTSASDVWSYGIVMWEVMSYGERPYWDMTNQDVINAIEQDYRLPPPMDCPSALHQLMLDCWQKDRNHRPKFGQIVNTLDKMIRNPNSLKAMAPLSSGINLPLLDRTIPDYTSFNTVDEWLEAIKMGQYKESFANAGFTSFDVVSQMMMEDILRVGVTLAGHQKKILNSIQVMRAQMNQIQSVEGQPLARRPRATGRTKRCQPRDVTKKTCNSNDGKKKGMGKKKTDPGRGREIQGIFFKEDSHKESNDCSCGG
FGFR3, sequence (P22607 whole entry, looked up): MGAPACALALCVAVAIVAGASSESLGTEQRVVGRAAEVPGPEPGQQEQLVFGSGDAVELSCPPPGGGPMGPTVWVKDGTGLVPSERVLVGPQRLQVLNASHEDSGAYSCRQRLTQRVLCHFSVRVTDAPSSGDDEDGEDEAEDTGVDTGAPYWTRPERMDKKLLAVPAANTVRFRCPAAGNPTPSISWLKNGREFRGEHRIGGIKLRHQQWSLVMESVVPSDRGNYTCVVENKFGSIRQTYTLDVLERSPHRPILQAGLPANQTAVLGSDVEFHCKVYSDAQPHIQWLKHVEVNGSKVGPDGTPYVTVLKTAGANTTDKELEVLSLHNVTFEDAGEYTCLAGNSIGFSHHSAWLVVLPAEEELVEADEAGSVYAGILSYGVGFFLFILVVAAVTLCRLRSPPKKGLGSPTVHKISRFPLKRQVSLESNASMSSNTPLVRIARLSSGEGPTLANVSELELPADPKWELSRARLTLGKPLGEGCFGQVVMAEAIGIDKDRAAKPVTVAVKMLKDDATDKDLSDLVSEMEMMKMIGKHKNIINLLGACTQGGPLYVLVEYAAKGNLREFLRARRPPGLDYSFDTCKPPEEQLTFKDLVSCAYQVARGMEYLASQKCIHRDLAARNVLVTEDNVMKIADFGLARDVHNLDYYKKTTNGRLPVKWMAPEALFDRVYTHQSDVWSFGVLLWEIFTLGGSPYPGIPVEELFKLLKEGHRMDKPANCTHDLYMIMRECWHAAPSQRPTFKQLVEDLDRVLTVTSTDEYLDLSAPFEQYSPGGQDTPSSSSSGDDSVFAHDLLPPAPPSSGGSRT
Fyn, sequence (P06241 whole entry, looked up): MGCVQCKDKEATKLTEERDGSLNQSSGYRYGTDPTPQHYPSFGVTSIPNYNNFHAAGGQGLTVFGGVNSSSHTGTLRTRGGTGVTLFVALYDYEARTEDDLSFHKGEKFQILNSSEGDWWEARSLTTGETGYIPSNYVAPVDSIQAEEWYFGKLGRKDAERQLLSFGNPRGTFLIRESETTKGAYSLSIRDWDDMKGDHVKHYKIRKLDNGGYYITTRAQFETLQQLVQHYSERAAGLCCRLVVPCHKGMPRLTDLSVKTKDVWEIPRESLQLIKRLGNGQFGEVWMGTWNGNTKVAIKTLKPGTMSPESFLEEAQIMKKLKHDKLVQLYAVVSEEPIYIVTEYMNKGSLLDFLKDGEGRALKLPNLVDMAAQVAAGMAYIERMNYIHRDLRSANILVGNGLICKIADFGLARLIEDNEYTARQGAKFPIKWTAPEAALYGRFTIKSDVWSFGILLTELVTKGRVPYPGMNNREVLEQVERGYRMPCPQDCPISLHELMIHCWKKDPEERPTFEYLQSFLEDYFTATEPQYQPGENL

Sequence | phosphorylation enrichment (AncSZ) | phosphorylation enrichment (EPHB1) | phosphorylation enrichment (EPHB2) | phosphorylation enrichment (FGFR1) | phosphorylation enrichment (FGFR3) | phosphorylation enrichment (Fer (mouse)) | phosphorylation enrichment (Fes) | phosphorylation enrichment (Fyn) | phosphorylation enrichment (Hck) | phosphorylation enrichment (Jak2) | phosphorylation enrichment (MERTK) | phosphorylation enrichment (c-Abl (mouse)) | phosphorylation enrichment (c-Src) | SH2 binding enrichment (Grb2 SH2) | SH2 binding enrichment (SHP2-C SH2) | SH2 binding enrichment (c-Src SH2)
EKSREYDRLFE [PIK3R1_Y463_YF] | 0.929 | 0.457 | 0.602 | 0.434 | 0.577 | 0.437 | 0.993 | 0.448 | 0.522 | 0.935 | 0.453 | 0.784 | 0.5 | 0.809 | 0.991 | 13.5
GGQSVYHVNLH [HINT1_Y109_H112N] | 0.583 | 0.495 | 0.364 | 0.429 | 0.376 | 0.337 | 0.617 | 1.01 | 0.583 | 0.491 | 0.387 | 0.491 | 1.03 | 0.698 | 0.663 | 0.491
GSRGKYSSGFC [ATM_Y332_R337C] | 0.495 | 0.441 | 0.406 | 0.446 | 0.539 | 0.401 | 0.559 | 0.464 | 0.431 | 0.545 | 0.51 | 0.611 | 0.472 | 1.25 | 1.16 | 0.938
PYADPYYDYEI [ZC3H18_Y371] | 4.79 | 5.6 | 4.58 | 20.2 | 19.8 | 6.03 | 2.33 | 6.02 | 3.13 | 2.75 | 4.93 | 1.16 | 8.11 | 0.795 | 1.03 | 1.94
LSPNMYNSKLW [TARSL2_Y457] | 0.879 | 0.632 | 0.753 | 0.75 | 1.13 | 0.5 | 1.19 | 0.622 | 0.831 | 0.561 | 0.603 | 0.726 | 0.573 | 1.09 | 0.763 | 0.51
LFNQDYPIHCV [GATM_Y227_S231C_YF] | 1.43 | 1.32 | 0.889 | 4.54 | 2.52 | 1.03 | 1.49 | 0.777 | 0.555 | 1.17 | 0.729 | 1.11 | 0.33 | 0.446 | 0.806 | 0.407
FADIAYSFRHG [PAH_Y166_N167S_YF] | 0.62 | 0.344 | 0.383 | 0.313 | 0.491 | 0.393 | 0.674 | 0.443 | 0.44 | 0.422 | 0.33 | 0.463 | 0.64 | 0.749 | 1.15 | 0.673
VYSSDYFSFVL [USP24_Y2138] | 2.21 | 3.74 | 3.95 | 9.06 | 7.74 | 0.875 | 1.35 | 4.46 | 1.95 | 5.25 | 5.03 | 2.92 | 4.61 | 0.798 | 0.62 | 0.442
WGTAEYDSVVA [MAP1A_Y1883] | 1.4 | 0.685 | 0.86 | 0.583 | 0.817 | 1.57 | 1.24 | 0.66 | 1.16 | 1.18 | 0.456 | 0.703 | 0.819 | 0.893 | 0.639 | 1
NNRVFYGNSDR [RS1_Y177] | 0.437 | 0.284 | 0.378 | 0.375 | 0.411 | 0.338 | 0.536 | 0.395 | 0.337 | 0.546 | 0.315 | 0.499 | 0.414 | 0.852 | 0.735 | 0.505
GRSTFYWPSPR [GAGE12J_Y10_R13S_YF] | 0.643 | 0.541 | 0.693 | 0.665 | 0.708 | 0.399 | 0.697 | 0.466 | 0.559 | 0.713 | 6.43 | 0.726 | 0.551 | 1.49 | 1.64 | 1.26
GDGRFYMKEAI [PGM1_Y66] | 0.875 | 0.552 | 0.613 | 0.52 | 0.682 | 0.549 | 1.11 | 0.45 | 0.454 | 1.03 | 0.311 | 0.709 | 0.38 | 0.642 | 0.658 | 0.561
GLPINYTTRRI [LAMA2_Y2894] | 0.499 | 0.323 | 0.441 | 0.565 | 0.415 | 0.557 | 0.534 | 0.549 | 0.569 | 0.468 | 0.599 | 0.404 | 0.611 | 0.62 | 0.58 | 0.325
SDVCMYRKNIF [SYNE2_Y570_YF] | 0.906 | 0.536 | 0.479 | 0.48 | 0.712 | 0.354 | 1.12 | 0.371 | 0.355 | 0.931 | 0.448 | 0.793 | 0.436 | 0.794 | 0.74 | 0.554
LDFNEYFRGLN [HPRT1_Y198_D201G_YF] | 1.29 | 0.832 | 1.41 | 0.788 | 0.933 | 0.62 | 1.45 | 0.746 | 0.873 | 1.92 | 0.714 | 0.799 | 0.595 | 1.17 | 1.08 | 0.862
QKDTFYGLRSL [IGSF10_Y126] | 0.73 | 0.488 | 0.927 | 0.562 | 0.562 | 0.474 | 1.12 | 0.498 | 0.598 | 1 | 0.552 | 0.837 | 0.807 | 0.952 | 0.488 | 0.439
SVTCTYSPARN [TP53_Y126_L130R] | 1.22 | 0.576 | 0.654 | 0.53 | 0.756 | 0.554 | 1.37 | 0.489 | 0.56 | 1.06 | 0.449 | 0.84 | 0.555 | 0.793 | 0.613 | 0.371
